{"source": "the nanobody polyreactivity screen of Harvey et al. (2022)", "data": [{"experiment": "yeast display, Sf9 membrane polyspecificity reagent, FACS + sequencing; frameworks hold sequencing errors", "outline": "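Synthetic nanobody libraries on Saccharomyces cerevisiae BJ5465 were galactose-induced for 36–48 hours, stained 1 hour at 4 °C with 10% biotinylated, detergent-solubilized Sf9 membrane reagent and enriched on streptavidin microbeads. FACS then separated cells into low and high (top ~1%) gates by anti-HA (expression) and streptavidin (reagent binding) fluorescence. Genes were colony-PCR amplified, MiSeq 2 × 250 sequenced and CDR-length filtered. A clone's polyreactivity label is that of its gate of origin.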", "values": [{"sequence": "QVQLVESGGGLVQAGGSLRLSCADSGSTFGYYAMGSYRQAPGKERELVAAITSTGRTKYADSVKGRVTISRDNAKNTVNLQMNSLKPEDTAVYYCAADIWGQGTQVTVSS", "polyreactivity (PSR sort gate)": "high polyreactivity"}, {"sequence": "QVQLVESGGGLVQAGGSLSLSWAASGSTFFNNAMGWYRQAPGKERELVAGISYGCGRTYYADSVKGRFTISRDNAKNTVFLQMNSLKPEDTAVYYCNTVTSPAPYYSYDRYYWGQGTQVTVSS", "polyreactivity (PSR sort gate)": "high polyreactivity"}, {"sequence": "QVQLVESGGGLVQAGGSLRLSCAASGRIFAGYAMGWYRQAPGKERELVAAITTGGSTHYADSVKGRFTISRDNAKNTVYLQMNSLKPEDTAVYYCNAKVEFWESWGWLLDDDYWGQGTQVTVSS", "polyreactivity (PSR sort gate)": "low polyreactivity"}, {"sequence": "QVQLVESGGGLVQAGGSLRLSCAASGRTFPGYAMGWYRQAPGKERELVAGISYRGGSTYYADSVKGRFTISRDIAKNTVYLQMNSLKPEDTAVYYCAREYSRHKGDYWGQGTQVTVSS", "polyreactivity (PSR sort gate)": "low polyreactivity"}, {"sequence": "QVQLVESRWRFVQAGGSLRLSCAASGSIFADYAMGWYRQATGKERELVAAITFSGGSTYYADSVKGRFTISRDNENNTVYLQMNSLKPEDTAVYYCAARWRYRYYSWGQGTQVTVSS", "polyreactivity (PSR sort gate)": "high polyreactivity"}, {"sequence": "QVQLVESGGGLVQAGGSLRISCAASGRTGKNAMVWYRQARGNERELVAASRYNGGSTYYADSVKGRFTISRDNANNTVYLQKNIMKPEYTAVYYCAAAFRRHNGSAFNYWGHGTQVTVSS", "polyreactivity (PSR sort gate)": "high polyreactivity"}, {"sequence": "QVQLVESGGGLVQAGGSLRLSCAASGSTFGLYAMGWYRQAPGKERELVAAISYSGSSTYYADSVKGRFTISRDNAKNTVYLQMNSLKPEATAVYYCAARRSEHGYNYWGQGTQVSVSS", "polyreactivity (PSR sort gate)": "high polyreactivity"}, {"sequence": "QVQLVESGGGLVQAGGSLSLSCAASGRTFSYYTMGWYRQAPGKERELVARISNRGTNTYYADSVKGRFTISRDNAKNTVYLQMNSLTPEDTAVYYCAKYYYTSIVGYDSWGQGTQVTVSS", "polyreactivity (PSR sort gate)": "low polyreactivity"}, {"sequence": "QVQLVESGGGLVQAGGSLRLSCAASGGIIGAYVMGWYIQAAGKERELVAAISSGGDTNYADTVKGRFTISRDNAKNTVYIQMNSQKPEDTAVSYCAKDPYWTELYPSGDYWGQGTQVTVSS", "polyreactivity (PSR sort gate)": "low polyreactivity"}, {"sequence": "QVQLVESGGGLVQAGGSLRLSCAASGNTFWSYAMGWYRQAPGNERELVAAITQRGGSTYYADSVKGRFTISRDNAKNTVYLQMNSLKPEDTAVYYCAADTSYKGDYWGQGTQVTVSS", "polyreactivity (PSR sort gate)": "high polyreactivity"}, {"sequence": "QVQLVESGGGLVQAGGSLRLSCAASGRTFVGYAMGWYRQAPGKERELVAAITSGGSTYYADSVKGRFTISRDNAKNTVYLQMNSLKPEDTAVYYCATALYDWYSLEFDYWGQGTQVTVSS", "polyreactivity (PSR sort gate)": "low polyreactivity"}, {"sequence": "QVQLVESGGGLVQAGGSLRLSCAASGRTFPVNAMGWYRQAPGKERELVAAIRRRGGSTYYADSVKGRFTISRDNAKNTVYLQMNSRKPEDTAVYYCAADKSSSFSYSYGYWGHGTQVTVSS", "polyreactivity (PSR sort gate)": "low polyreactivity"}, {"sequence": "QVQLVESGGGLVQAGGSLRLSSAASGFTFKAYVMGWYRQAPGKERELVAASTRSGSSTYYADSVKGRFTISRDNGKNSVYLQMYSLKPEDTAVYYCAARYTQRPRRNYWGQVTQVTVSS", "polyreactivity (PSR sort gate)": "high polyreactivity"}, {"sequence": "QVQLVESGGGLVQAGGSLRLSCAASGRTFYANAMVWYRQAPGKERELVAGISYSGGNTYYADSVKGRFTISRDNAKNTVYIQMNSLKPEDTAVYYCAAATVWEYWTYEDWGQGTQVTVSS", "polyreactivity (PSR sort gate)": "low polyreactivity"}, {"sequence": "QVQLVESGGGLVQAGGSLRLSWAASGFTFGVNTMGWYRQAPGKERELVADISSGGRTNYADSVKGRFTISRDNAKNTVYLQMNRLKPEDTAVYYCAADNYSGTETDLTTLLDYWGQGTQVSVSS", "polyreactivity (PSR sort gate)": "low polyreactivity"}, {"sequence": "QVQLVESGGGLVQAGGSLRLSCAASGIIFYYNAMGWYRQAPGKERELVATIRWRGGSTYYADSVKGRFTISRDNAKNTVYLQMNSLKPEDTAVYYCNKSYDNSSDSDYWGQGTQVTVSS", "polyreactivity (PSR sort gate)": "low polyreactivity"}, {"sequence": "QVQLVESGGGLVQAGGSLRLSCAASGYIIWSYAMGWYRQAPGKERELVAGISYSGGSTYYADSVKGRFTISRDNAKNTVYLQMNSLKPEDTAVFYCAALRRGYVPFGYWGQGTQVTVSS", "polyreactivity (PSR sort gate)": "high polyreactivity"}, {"sequence": "QVQLVESGGGLVQAGGSLRLSCAASGSIFPWYAMGWYRPAPGKERELVADITNGSSTNYADSVKGRFTISRDNAKNTVYLQMNSLKPEDTAVYYCARDGIGADGYDYWGQGTQVTVSS", "polyreactivity (PSR sort gate)": "low polyreactivity"}, {"sequence": "QVQIVESGGGLVQAGGSLRLSCAASGSIFGPYVMGWYRQAPGKERELVAAISKSRGSTYYADSVKGRFTISRDNAKNTVYLQMNSLKPEDTAVYYCATDYLGGGKRYYYWGQGTQVTVSS", "polyreactivity (PSR sort gate)": "high polyreactivity"}, {"sequence": "QVQLVESGGGLVQAGGSLRLSSGASGSTFVTYAMGWYRQAPGKEREFVAAISSTGTGRTYYADSVKGRFTISRDNAKNPVYLQMNSLKPEDTAVYYCAADLYGTYDYWGQGTQVTVSS", "polyreactivity (PSR sort gate)": "low polyreactivity"}, {"sequence": "QVQLVESGGGLVQAGGSLRLSCAASGSIFLNNAMGWYRQAPGKERELVAAITRNVGSTYYADSVKGRFTISRDNAKNTVYLQMNSLKPEDTAVYYCAADRRRRYDYWGQGTQVTVSS", "polyreactivity (PSR sort gate)": "low polyreactivity"}, {"sequence": "QVQLVESGGGLVQAGGSLRLSCAASGSIIVYNTMGWYRQAPGKERGLVAAITVRDDSTYYADSVKGRFTISRDNAKNTVYLQMNSLKPEDTAVYYCNVRKTWYGYSVTGRYDYWGQGTEVTVSS", "polyreactivity (PSR sort gate)": "low polyreactivity"}, {"sequence": "QVHLVESGGGLVQAGGSLRLSCAASGSIFRSYAMGWYRQAPGKERELVAGISWSGGSTYYADSVKGRFTISRDNAKNTVYLQMNSLKPEDTPVYYCDADIKIRLYTTGDYWGQGTQVTVSS", "polyreactivity (PSR sort gate)": "low polyreactivity"}, {"sequence": "QVQLVESGGGLVQAGGSLRLSCAASGSIFLQYAMGWYRQAPGKERELVAAITTSGRTYYADSVKGRFTISRDNAKYTVYLQMNSLKPEDTAVYYCAATWRYGYYAYYYWGQGTQVTVSS", "polyreactivity (PSR sort gate)": "high polyreactivity"}, {"sequence": "QVQLVESGGGLVQAGGSLRLSCAASGNTFGLYAMGWYRQAPGKEREFVADITTDGGTTYYADSVKGRFTISRDNAKNTVYLQMNSLKPEDTAVYYCAKLGTFGQHQYDYWGQGTQVTVSS", "polyreactivity (PSR sort gate)": "low polyreactivity"}, {"sequence": "QDQLVESGGGLVQAGGSLRLSCAASGSTFKRYAMGWYSQAPGKVRELVAAISRRGGSTYYADSVKGRFTISRDNAKNTVYLQMNSLKPEDTAVYYCAARIASHHYYYWGQGTQVTVSS", "polyreactivity (PSR sort gate)": "high polyreactivity"}, {"sequence": "QVQLVESGGGLVQAGGSLRLSCAASGSIFPGNAMGGYRQAPGKERELVAAIRGGGSTNYADSVKGRFTISRDTAKNTVYIQMNSLKPEDTAVYYCAAQGILGSYDYWGQGTQVTVSS", "polyreactivity (PSR sort gate)": "low polyreactivity"}, {"sequence": "QVQHVESGRGLVQAGGSLRLSCAASGITFNQYAMGWYRQAPGKERELVAGISYSGGSTYYADSVKGRFTISRDNAKNTVYFQMISLKPEDTAVYYCAKRSPFTLDYWGQGTQVTVSS", "polyreactivity (PSR sort gate)": "high polyreactivity"}, {"sequence": "QVQLVESGGGLVQAGGSLRLSCAASGSTFRYYAMGWYRQAPGKERELVAAISGSGGRTYYADSVKGRFTISRDNAKNTVYLQMYSLKPEDTAVYYCAASRYQFYWGQGTQVTVSS", "polyreactivity (PSR sort gate)": "high polyreactivity"}, {"sequence": "QVQHVESGGGLVQAGGSLRLSCAASGRTFRNNAMGWYRQAPGKERELVAAITSGGSTYYADSVKGRFTISRDNAKNTVYLQMNSLKPEDTAVYYCAAVPEYYEYSPYDYWGQGTQVTVSS", "polyreactivity (PSR sort gate)": "low polyreactivity"}, {"sequence": "QVHIVESGGGLVQAGGSLRLSCADSGSIFLSNVMGSYRQAPGKERELVDDITRSGGSTYYADSVKGRFTISRDNAKNTVYLQMNSLKPEDTAVYYCNAYEYLSAGYDYWGQGTQVTVSS", "polyreactivity (PSR sort gate)": "low polyreactivity"}, {"sequence": "QVKLVESGGGLVQAGGSLRLSCAASGSIFWGYDMGWYRQAPGKERELVARISYSGGSTSYADSVKGRFTISRDNAKNTVYLQMNSLKPEDTAVFYCAADEGGFWWTYPYDSLGQGTQVTVSS", "polyreactivity (PSR sort gate)": "low polyreactivity"}, {"sequence": "QVQLVESVGRLVQAGGSLRLSCAASGSIIRSYTKGWYRQAPGKEWELVAASSGRAGSTYYADSVKGRFTISRDIAKNTVYLQMPGLKPEDTAVYYCAVILGGRAQSYYWGHGTQVTVSS", "polyreactivity (PSR sort gate)": "high polyreactivity"}, {"sequence": "QVQLVESGGGLVQAGGSLRLSCAASGFTFYSNAMGWSRQAPGKERELVATIRYRGGSTYADSVKGRFTISRDNAKNTVYLQMNSLKPEDTAVYYCAARKYRSFRQRTGDYWGQGTQVTVSS", "polyreactivity (PSR sort gate)": "high polyreactivity"}, {"sequence": "QVQLVESGGGLVQAGGSLRLSCAASGSSFYYYTMGWYRQAPGKEMELVAAITYSGGSTRYADSVKGRFTISRDNAKNTVYLQMNSLKPEDTAVYYCAAELTEWTNGFDYWGQGTQVTVSS", "polyreactivity (PSR sort gate)": "high polyreactivity"}, {"sequence": "QVQLVESGGGLVQAGGSLRLSCAASGRIFGYYAMGWYRQAPGKERELVAAIRYSSGRTYYADSVKGRFTISRDNAKNNVYLQMNSLKPEDTAVYYCNAGYLFLRSYPHDYWGQGTQVTVSS", "polyreactivity (PSR sort gate)": "high polyreactivity"}, {"sequence": "QVQLVESGGGLEQAGGSLRLSCAASGRTFQYYTMGLYRQAPGKERELVAAISTGGSTHYSDSVKGRFTISRDNAKNTVYLEMFSLKPVDTAVYYCAALWSRRRSRPRFPGDFWGQGTQLTVSS", "polyreactivity (PSR sort gate)": "high polyreactivity"}, {"sequence": "QVQLVESGGGLVQAGGSLRLICAASGNIFTTYAMGWYRQAPGKERELVAAISRTGGRTSYADSVKGRFTISRDNAKNTVYLQMNSLKPEDTAVYYCAAVPTVRPSAPRARILSDYWGQGTQVTVSS", "polyreactivity (PSR sort gate)": "high polyreactivity"}, {"sequence": "QVQHVESGGGFVQAGGSLRLSCAASGITFYDYTMGWYRPAPGKERELVDAITSSGVSTYYADSVKGRFTISRDNAKKTVYLQMNSLKPEDTAVYYCATDAWSVYSYLAFTYDYWGQGTQVTVSS", "polyreactivity (PSR sort gate)": "low polyreactivity"}, {"sequence": "QVQLVESGGGLVQAGGSLRLSCAASGRTFLRYRMGWYRQAPGKERELVATISRSGGGTTYADSVKGRFTISRYNAKNTVYLQMNSLKPEDTAVYYCNRDQTYPYQYNRWVGQYKYDYWGQGTQVTVSS", "polyreactivity (PSR sort gate)": "low polyreactivity"}, {"sequence": "QVQLVDSGGGLVQAGGSLRLSFAASGSTFHTYAMGWYRQAPGTERELVATNTWDGGRTYYADSVKGRFTISRDIAKYTVYLQMNSLKPEDTAVYYCASVYWSIEMDYWGQGSQVTVSS", "polyreactivity (PSR sort gate)": "low polyreactivity"}, {"sequence": "QVQLVESGGGLVQAGGSLRLSCAASGTTIQGYAMGWYRQAPGKERELVAAISGSGGTTYYADSVKGRFTISRDNAKNTVYLQMNSLKPEDTAVYYCAAYVFYNFGVYTRGYYYWGQGTQVTVSS", "polyreactivity (PSR sort gate)": "high polyreactivity"}, {"sequence": "QVQLVESGGGLVQAGGSLRLTCAASGFTFDTYAMGWYRQAPGKEREFVATISRNSGSTYYADSVKGRFTIARDNAKNTVYLQMNSLKPEDTAVYYCNRRRYGRKSDRMNYWGQGTQVTVSS", "polyreactivity (PSR sort gate)": "high polyreactivity"}]}]}
